Molecular target: T1, wild-type Mtd (major tropism determinant), Mtd-GST fusion protein (Bordetella bronchiseptica bacteriophage), Q775D6
T1 chain: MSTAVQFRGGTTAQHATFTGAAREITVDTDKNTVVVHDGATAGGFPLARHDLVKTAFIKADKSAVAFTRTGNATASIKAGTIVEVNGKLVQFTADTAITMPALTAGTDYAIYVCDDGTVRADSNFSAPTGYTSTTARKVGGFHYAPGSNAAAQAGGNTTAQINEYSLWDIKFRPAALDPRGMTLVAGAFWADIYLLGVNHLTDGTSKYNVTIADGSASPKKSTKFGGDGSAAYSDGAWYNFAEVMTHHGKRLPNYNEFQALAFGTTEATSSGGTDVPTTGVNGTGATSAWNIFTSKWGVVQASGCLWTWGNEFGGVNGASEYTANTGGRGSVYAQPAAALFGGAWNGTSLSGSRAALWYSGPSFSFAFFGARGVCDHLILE
Assay: SEC; size exclusion chromatography of purified Mtd-GST fusion proteins after dialysis into PBS
Details: remark: other sources report otherwise

B1: wild-type Mtd (major tropism determinant), Mtd-GST fusion protein, Q775D6 1-381 (natural protein)
chain: T1 chain
With B1 the stoichiometry N was 6.
